Consider 2 molecules from patent US20030061635A1, “Pollen-specific novel calmodulin-binding protein, NPG1 (No Pollen Germination1), promoter, coding sequences and methods for using the same” (priority 2001, published 2003).

The subject of one assay is 35S-labeled AtCaM. Nature of the assay: Blot overlay of bacterially expressed maize NPG1 fusion proteins with 35S-CaM. Type of assay: binding, Arabidopsis thaliana. The conditions noted are these: in the presence of EGTA. The protocol: The 1.2-kb cDNA insert (named P3) containing the coding region for 242 amino acids in the carboxyl-terminal region was cloned in-frame into a pET28b expression vector. For mapping the CaM-binding domain, several truncated constructs were prepared in a pET vector. The P3 cDNA in pET28 was digested with either NcoI or BamHI to release a 168- or 717-bp fragment corresponding to the 5′ end of the cDNA. The NcoI and BamHI fragments were cloned into pET28b vector digested with the respective enzymes to generate P3/NcoI and P3/BamHI clones. The P3 clones lacking either NcoI or BamHI fragments were religated to generate PΔNcoI and PΔBamHI expression clones. […]
Soluble and insoluble proteins from the induced and un-induced cultures were separated on 12% SDS-polyacrylamide gels and blotted as described above. […] Binding to biotinylated CaM was detected by blocking the blots in 3% gelatin in TBS/Ca/Mg or TBS/EGTA/Mg (50 mM Tris-HCl, pH 7.5, 50 mM MgCl2, 150 mM NaCl, and 5 mM of either CaCl2 or EGTA) at 30° C. […] The blots were then incubated in Vectastain ABC.HRP in TBS/Ca/Mg or TBS/EGTA/Mg for 30 min, washed 3 times, 10 min each, with the above buffer and the CaM-binding proteins were detected colorimetrically in a substrate solution (0.8 mg/ml diaminobenzidine, 0.4 mg/ml NiCl2, and 0.009% H2O2 in 100 mM Tris-HCl, pH 7.5).

In a further assay the target is T1, biotinylated CaM (Bos taurus, UniProt P62157).
T1 construct: purchased Calbiochem-Novabiochem (San Diego, Calif.)
Nature of the assay: Blot overlay of fusion proteins with biotinylated CaM. Type of assay: binding. Conditions: in the presence of Ca2+. On the procedure:
Soluble and insoluble proteins from the induced and un-induced cultures were separated on 12% SDS-polyacrylamide gels and blotted as described above. To detect the binding of the expressed proteins to ^35S-labeled AtCaM, duplicate blots were blocked for 15 min in TBS (50 mM Tris-HCl, pH 7.5, 150 mM NaCl) containing 5 mM of either CaCl2 or EGTA and 1% nonfat dry milk. The blots were then incubated for 12 h in a mixture of ^35S-labeled AtCaM isoforms at […] in the same buffers as above. The filters were then washed with the corresponding buffer and dried before exposing to X-ray film. Binding to biotinylated CaM was detected by blocking the blots in 3% gelatin in TBS/Ca/Mg or TBS/EGTA/Mg (50 mM Tris-HCl, pH 7.5, 50 mM MgCl2, 150 mM NaCl, and 5 mM of either CaCl2 or EGTA) at 30° C. The blots were then incubated in […] biotinylated CaM for 2 h in TBS/Ca/Mg or TBS/EGTA/Mg containing 0.1% Tween 20 and 1% gelatin followed by three washes of 10 min each in the corresponding buffers above. The blots were then incubated in Vectastain ABC.HRP in TBS/Ca/Mg or TBS/EGTA/Mg for 30 min, washed 3 times, 10 min each, with the above buffer and the CaM-binding proteins were detected colorimetrically in a substrate solution (0.8 mg/ml diaminobenzidine, 0.4 mg/ml NiCl2, and 0.009% H2O2 in 100 mM Tris-HCl, pH 7.5).

In the next assay the target is T2, CaM-Sepharose (Bos taurus, UniProt P62157).
T2 construct: purchased Amersham Pharmacia Biotech UK Ltd., Little Chalfont, Buckinghamshire, UK
Nature of the assay: Native NPG1 from maize pollen on CaM-Sepharose column / pull-down with CaM-Sepharose beads. Type of assay: binding, bovine. The conditions noted are these: bound with Ca2+, eluted with EGTA; maize pollen extract. The protocol: Maize pollen proteins were extracted in a buffer containing 50 mM Tris-HCl, pH 7.4, 250 mM sucrose, 5 mM DTT, and complete protease inhibitor mixture. The extract was first centrifuged at 14,000×g for 20 min and then at 100,000×g for 15 min at 4° C. to obtain the supernatant containing soluble proteins. Prior to loading the supernatant onto the CaM-Sepharose column (Amersham Pharmacia Biotech UK Ltd., Little Chalfont, Buckinghamshire, UK) the concentration of Ca^2+ was adjusted to 1.25 mM. The flow-through was collected and saved. The column was washed thoroughly with binding buffer (50 mM Tris-HCl, pH 7.5, 150 mM NaCl, 1.25 mM CaCl2) to remove unbound proteins. Washes equivalent to 1-bed volume of the column were collected and saved. The CaM-binding proteins were eluted with elution buffer (50 mM Tris-HCl, pH 7.5, 150 mM NaCl, 5 mM EGTA). The absorbance of the eluted fractions was recorded at 235 and 280 nm to compare the elution profile of protein with EGTA. Initial soluble extract, flow-through, wash fraction, and eluted protein were separated on three denaturing gels. One gel was stained with Coomassie Blue and the other two were blotted onto nitrocellulose membranes and probed with NPG1-specific antibody or HRP-CaM.
[…] of pollen soluble proteins prepared as described above were mixed and incubated with 0.2 ml of CaM-Sepharose beads at room temperature for 30 min. […]

Assay [1] concerns the target T3, HRP-CaM (Arabidopsis CaM2) (Arabidopsis thaliana, UniProt P0DH97).
T3 construct: made in house; host or cells: E. coli BL21(DE3)
Nature of the assay: HRP-CaM blot overlay assay. Type of assay: binding. The protocol: (§1) HRP was conjugated to CaM and used in blot overlay assays according to the procedure described by Lee et al. (1999) BBA 1433:56-67. Briefly, the Arabidopsis CaM2 was incubated in 25 mM Tris-HCl, pH 7, 2 mM EGTA, and 0.1 M DTT at 55° C. for 1.5 h and the reduced CaM was extensively dialyzed against phosphate-buffered saline at 4° C. Maleimide-activated HRP (Pierce Biotechnology, Inc., Rockford, Ill.) and reduced CaM were incubated at a molar ratio of 1:1 in phosphate-buffered saline at room temperature for 1.5 h. The resulting HRP-CaM complex was verified on a denaturing gel and used in blot-overlay assays. Protein blots were prepared as described above, rinsed in TBST (TBS containing 0.1% (v/v) Tween 20), and blocked by incubating in TBST plus 7% (w/v) non-fat dry milk overnight. The blocked membranes were washed three times, 5 min each, with TBST. […] The proteins that bound to HRP-CaM were detected by immersing the blots in a substrate solution as above.
Maize pollen proteins were extracted in a buffer containing 50 mM Tris-HCl, pH 7.4, 250 mM sucrose, 5 mM DTT, and complete protease inhibitor mixture. […] The absorbance of the eluted fractions was recorded at 235 and 280 nm to compare the elution profile of protein with EGTA. […]

The subject of the next assay is CaM-Sepharose beads. Kind of assay: Bacterially expressed AtNPG1 binding to CaM-Sepharose beads. Conditions: eluted with EGTA-containing buffer. On the procedure: A 2.0 kb EcoRI fragment of AtNPG1 cDNA containing the entire coding region was subcloned into pET28a and the orientation of the cDNA was confirmed by restriction analysis and sequencing. Induction of fusion protein, its purification on CaM Sepharose column and detection with horseradish peroxidase CaM isoforms was performed essentially as described earlier (Reddy and Reddy (2000) J. Biol. Chem. 275:35457-35470).

Assay [2] relates to Arabidopsis CaM isoform-2, -4 and -6. Kind of assay: Blot overlay of purified AtNPG1 with horseradish peroxidase labeled Arabidopsis CaM isoforms. Conditions: absence or presence of calcium. Type of assay: binding, Arabidopsis thaliana. On the procedure: as §1, with “TBST. After equilibration in the overlay buffer (50 mM imidazole-HCl, pH 7.5, and 150 mM NaCl) for 1 h, the membranes were incubated for 1 h in overlay buffer containing 0.1% gelatin and […] HRP-CaM. The HRP-CaM overlay blots were washed sequentially in three buffers. Wash with each buffer was performed five times for 5 min each.” for “TBST.”, “above. […]” for “above.”

B1: NPG1: maize pollen-specific calmodulin-binding protein, 659 amino acid residues, about 72 kDa, SEQ ID NO:1 (protein)
chain: MPLIRYYVDHVHVAVEARALLGRLEFQKGNVEVALRVFDGIDLQAAIQQFQPSLSDKTPSKKGRTKSEIPSSVPQNNPASLVLEAIYLKSLSLQKLGKSTEAANQCKSVLDSVESIFQNGAPDIEQKLQETVNKSVELLPEAWKHAGSNQEALASYRRALLSPWNLDDECRTRVQKRFASFLLYXTNIDWSPPSMAQQVEGCFVPKNSVEEAVLLLMVVLRSWYQGKTHWDPSVMEHLTYALSLCGEPLVLAKQLEEVLPGVYPRTERWATLALCYYVAGQKDVALNFLRKSLNKLENPNDVLALLLAAKICSKERHLASEGVEYARRVIACAESSDPHLKSVGLHFLGSCLGNKSKVVSSDYQRSLLQTETLKSFAESIGLNRYNADLIFDMGVEYAEQRNMNAALRCAKEFIEATGGSVSKGWRLLALILSAQQRFSEAEVATDAALDETAKLDQGSLLRVKAKLKVAQSSPMEAVEAYRALLALVQAQKNSPGGSCKSATEDADGSVSEFEIWQGLANLYSSLSYWRDAEICLNKARALKLYSAATLHAEGYMHEARDQTTDALAAYVNAFSTELEHVPSKVAIGAMLSKQGPRFLPAARCFLSDALRVEPTNRMAWLYLGKVHRSDGRISDAADCFQAAVMLEESDPVESFSSLS
modifications: X: residue not identified in the source
With B1, the “binding to CaM” value in the assay with 35S-labeled AtCaM was “No binding to CaM was observed”. In addition, the “binding to biotinylated CaM” value with biotinylated CaM is listed as “did not bind to biotinylated CaM”. In addition, the “binding of native protein to CaM-Sepharose” value with CaM-Sepharose is on record as “binds CaM in the presence of Ca^2+”. Further, in assay [1], the “detection by HRP-CaM in blot overlay” value is given as “also detected by HRP-CaM”.

B2: AtNPG1: Arabidopsis NPG1, protein of 704 amino acids, SEQ ID NO:10, bacterially expressed as T7 tag fusion (protein, listed as Arabidopsis thaliana)
chain: MLGNQSADFSEKGEDEIVRQLCANGICMKTTEVEAKLDEGNIQEAESSLREGLSLNFEEARALLGRLEYQRGNLEGALRVFEGIDLQAAIQRLQVSVPLEKPATKKNRPREPQQSVSQHAANLVLEAIYLKAKSLQKLGRITEAAHECKSVLDSVEKIFQQGIPDAQVDNKLQETVSHAVELLPALWKESGDYQEAISAYRRALLSQWNLDNDCCARIQKDFAVFLLHSGVEASPPSLGSQIEGSYIPRNNIEEAILLLMILLKKFNLGKAKWDPSVFEHLTFALSLCSQTAVLAKQLEEVMPGVFSRIERWNTLALSYSAAGQNSAAVNLLRKSLHKHEQPDDLVALLLAAKLCSEEPSLAAEGTGYAQRAINNAQGMDEHLKGVGLRMLGLCLGKQAKVPTSDFERSRLQSESLKALDGAIAFEHNNPDLIFELGVQYAEQRNLKAASRYAKEFIDATGGSVLKGWRFLALVLSAQQRFSEAEVVTDAALDETAKWDQGPLLRLKAKLKISQSNPTEAVETYRYLLALVQAQRKSFGPLRTLSQMEEDKVNEFEVWHGLAYLYSSLSHWNDVEVCLKKAGELKQYSASMLHTEGRMWEGRKEFKPALAAFLDGLLLDGSSVPCKVAVGALLSERGKDHQPTLPVARSLLSDALRIDPTNRKAWYYLGMVHKSDGRIADATDCFQAASMLEESDPIESFSTIL
modifications: T7 tag fusion
Regarding B2, the “binding to CaM-Sepharose beads” value in the assay with CaM-Sepharose beads is “bound CaM-Sepharose beads in a calcium-dependent manner”. Further, in assay [2], the “binding to Arabidopsis CaM isoforms in blot overlay” value is “bound three Arabidopsis CaM isoforms in a calcium-dependent manner”.
